Measurements published in PMC3164844 (Proteins, 2011).

B1: GDPMK, Nudix GDP-mannose hydrolase from E. coli (product of the gene yffH), wild type (enzyme, UniProt P37128 1-191, looked up)
chain: MTQQITLIKDKILSDNYFTLHNITYDLTRKDGEVIRHKREVYDRGNGATILLYNTKKKTVVLIRQFRVATWVNGNESGQLIESCAGLLDNDEPEVCIRKEAIEETGYEVGEVRKLFELYMSPGGVTELIHFFIAEYSDNQRANAGGGVEDEDIEVLELPFSQALEMIKTGEIRDGKTVLLLNYLQTSHLMD
B2: GDPMK (Escherichia coli K-12; K176A) (protein)
chain: MTQQITLIKDKILSDNYFTLHNITYDLTRKDGEVIRHKREVYDRGNGATILLYNTKKKTVVLIRQFRVATWVNGNESGQLIESCAGLLDNDEPEVCIRKEAIEETGYEVGEVRKLFELYMSPGGVTELIHFFIAEYSDNQRANAGGGVEDEDIEVLELPFSQALEMIKTGEIRDGATVLLLNYLQTSHLMD
B3: GDPMK (Escherichia coli K-12; E149A) (protein)
chain: MTQQITLIKDKILSDNYFTLHNITYDLTRKDGEVIRHKREVYDRGNGATILLYNTKKKTVVLIRQFRVATWVNGNESGQLIESCAGLLDNDEPEVCIRKEAIEETGYEVGEVRKLFELYMSPGGVTELIHFFIAEYSDNQRANAGGGVADEDIEVLELPFSQALEMIKTGEIRDGKTVLLLNYLQTSHLMD
B4: GDPMK (Escherichia coli K-12; R44S) (protein)
chain: MTQQITLIKDKILSDNYFTLHNITYDLTRKDGEVIRHKREVYDSGNGATILLYNTKKKTVVLIRQFRVATWVNGNESGQLIESCAGLLDNDEPEVCIRKEAIEETGYEVGEVRKLFELYMSPGGVTELIHFFIAEYSDNQRANAGGGVEDEDIEVLELPFSQALEMIKTGEIRDGKTVLLLNYLQTSHLMD
B5: GDPMK (Escherichia coli K-12; E151A) (protein)
chain: MTQQITLIKDKILSDNYFTLHNITYDLTRKDGEVIRHKREVYDRGNGATILLYNTKKKTVVLIRQFRVATWVNGNESGQLIESCAGLLDNDEPEVCIRKEAIEETGYEVGEVRKLFELYMSPGGVTELIHFFIAEYSDNQRANAGGGVEDADIEVLELPFSQALEMIKTGEIRDGKTVLLLNYLQTSHLMD
B6: GDPMK E100A mutant (enzyme, E. coli, UniProt P37128 1-191, looked up)
chain: MTQQITLIKDKILSDNYFTLHNITYDLTRKDGEVIRHKREVYDRGNGATILLYNTKKKTVVLIRQFRVATWVNGNESGQLIESCAGLLDNDEPEVCIRKAAIEETGYEVGEVRKLFELYMSPGGVTELIHFFIAEYSDNQRANAGGGVEDEDIEVLELPFSQALEMIKTGEIRDGKTVLLLNYLQTSHLMD

Key:
GDPMK = GDPMK (Escherichia coli, UniProt P37128, E100A); assay: X-ray crystal structure, […] Å; format: binding; settings: Mg2+; active site; co-crystallised at pH 8.5
phosphate release = substrate: Nc1nc2c(ncn2[C@@H]2O[C@H](COP(=O)(O)OP(=O)(O)O[C@H]3O[C@H](CO)[C@@H](O)[C@H](O)[C@@H]3O)[C@@H](O)[C@H]2O)c(=O)[nH]1; assay: phosphate release; format: biochemical, Escherichia coli; settings: Mg2+, pH 8.5, 37 °C
SEC = target: the molecule itself; assay: SEC
crystal structure = target: the molecule itself; assay: crystal structure

Row | Molecule | Km (phosphate release) [µM] | kcat (phosphate release) [s⁻¹] | also measured
1 | Nc1nc2c(ncn2[C@@H]2O[C@H](COP(=O)(O)OP(=O)(O)O[C@H]3O[C@H](CO)[C@@H](O)[C@H](O)[C@@H]3O)[C@@H](O)[C@H]2O)c(=O)[nH]1 [GDP-mannose] | – | – | X-ray crystal structure, 2.45 Å (GDPMK): The structure of the complex of the GDPMK E100A mutant with GDP-mannose and magnesium
2 | B1 | 659 ± 65 | 90.2 ± 6.7 | stoichiometry N (SEC): 2
3 | B2 | – | 0.11 ± 0.04 | –
4 | B3 | 555 ± 85 | 80.6 ± 6.3 | –
5 | B4 | – | 1.69 ± 0.12 | –
6 | B5 | 594 ± 140 | 21.3 ± 4.6 | –
7 | B6 | – | – | binding result (crystal structure): binds
